In paper PMC8749958 (Science translational medicine, 2021):

Biological target: T1, recombinant human CD93 protein (R&D Systems) (human, UniProt Q9NPY3 24-580)
T1 sequence (looked up): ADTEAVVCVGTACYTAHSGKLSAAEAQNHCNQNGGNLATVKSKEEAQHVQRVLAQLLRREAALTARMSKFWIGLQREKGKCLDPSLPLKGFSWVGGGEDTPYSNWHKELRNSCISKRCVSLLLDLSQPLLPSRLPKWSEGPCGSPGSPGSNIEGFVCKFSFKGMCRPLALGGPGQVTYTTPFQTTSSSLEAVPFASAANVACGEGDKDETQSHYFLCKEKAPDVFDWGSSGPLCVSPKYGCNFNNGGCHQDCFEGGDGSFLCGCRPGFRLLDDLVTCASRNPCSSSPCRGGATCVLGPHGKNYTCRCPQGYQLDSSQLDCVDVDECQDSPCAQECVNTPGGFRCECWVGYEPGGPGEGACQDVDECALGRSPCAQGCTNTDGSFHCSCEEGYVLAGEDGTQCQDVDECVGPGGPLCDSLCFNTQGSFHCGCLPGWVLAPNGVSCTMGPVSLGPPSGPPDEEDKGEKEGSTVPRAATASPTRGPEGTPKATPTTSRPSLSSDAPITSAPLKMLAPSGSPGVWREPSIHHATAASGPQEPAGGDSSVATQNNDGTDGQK
Assay: MST

B1: IGFBP7 protein (R&D Systems), labelled for microscale thermophoresis (ligand, human, UniProt Q16270 27-282, looked up)
chain: SSSDTCGPCEPASCPPLPPLGCLLGETRDACGCCPMCARGEGEPCGGGGAGRGYCAPGMECVKSRKRRKGKAGAAAGGPGVSGVCVCKSRYPVCGSDGTTYPSGCQLRAASQRAESRGEKAITQVSKGTCEQGPSIVTPPKDIWNVTGAQVYLSCEVIGIPTPVLIWNKVKRGHYGVQRTELLPGDRDNLAIQTRGGPEKHEVTGWVLVSPLSKEDAGEYECHASNSQGQASASAKITVVDALHEIPVKKGEGAEL
modifications: fluorescent dye RED-tris-NTA 2nd Generation (Monolith His-Tag Labeling kit)
B1 showed a Kd of 53.1 ± 20.2 nM.
